Measurements taken from PMC6415305 (Molecular cell, 2019).

Biological target: Recombinant His-tagged S6K1 T389E/S424D/S429D (S6K1*), in vitro translated (human, UniProt P23443-2 1-502, T389E | S424D | S429D)
Assay: SPR

Chain of Recombinant His-tagged S6K1 T389E/S424D/S429D (S6K1*), in vitro translated (P23443 24-525 T412E/S447D/S452D): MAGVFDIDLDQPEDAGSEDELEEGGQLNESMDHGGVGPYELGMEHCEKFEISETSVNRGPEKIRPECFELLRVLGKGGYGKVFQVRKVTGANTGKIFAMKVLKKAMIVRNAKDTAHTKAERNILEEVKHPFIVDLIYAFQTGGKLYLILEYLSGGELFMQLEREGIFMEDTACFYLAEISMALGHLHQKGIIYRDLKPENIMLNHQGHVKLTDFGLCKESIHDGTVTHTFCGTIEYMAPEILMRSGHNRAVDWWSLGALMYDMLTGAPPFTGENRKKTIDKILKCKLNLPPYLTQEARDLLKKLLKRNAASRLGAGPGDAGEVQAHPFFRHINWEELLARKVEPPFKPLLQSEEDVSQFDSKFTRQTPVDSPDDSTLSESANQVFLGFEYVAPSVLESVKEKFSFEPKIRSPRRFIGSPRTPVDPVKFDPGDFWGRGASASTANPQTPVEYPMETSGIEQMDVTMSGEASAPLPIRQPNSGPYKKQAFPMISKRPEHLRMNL

B1: EPRS linker (Pro683 to Asn1023 of human glutamyl-prolyl tRNA synthetase), His tag removed (domain or fragment, UniProt P07814 683-1023, looked up)
chain: PYEPVSPYSCKEAPCVLIYIPDGHTKEMPTSGSKEKTKVEATKNETSAPFKERPTPSLNNNCTTSEDSLVLYNRVAVQGDVVRELKAKKAPKEDVDAAVKQLLSLKAEYKEKTGQEYKPGNPPAEIGQNISSNSSASILESKSLYDEVAAQGEVVRKLKAEKSPKAKINEAVECLLSLKAQYKEKTGKEYIPGQPPLSQSSDSSPTRNSEPAGLETPEAKVLFDKVASQGEVVRKLKTEKAPKDQVDIAVQELLQLKAQYKSLIGVEYKPVSATGAEDKDKKKKEKENKSEKQNKPQKQNDGQRKDPSKNQGGGLSSSGAGEGQGPKKQTRLGLEAKKEEN
Kd: 56 nM
